This series deals with the molecule itself. The series is described as follows: native gel or EMSA. A general note: In EMSA bound probe runs differently from free probe, usually more slowly.

B1: Ugo1 (natural protein)
chain: MNNNNVTEATSRAQIRPYYDPDSFNAGYSAVFKPDEGVVDPHGYTIASKLNVINSSPTTKRMANALFKSSPMKKLSNSVNDGLSLEGSNGEITGLNNFEWAELVNIQKWRKIFEQLLDMFFRKYFQLLIQQPFDVARLLIQVGEFKIFKTTVDTNKPQAPIILRDEEGDGAAREGEEDAYDEEEIDFFPIERKIAEANSTAPIMAEETDHSHHEPTDISLTIAPQSLHTIDVINALFDQEGIRGLWKANNTTFIYNFLSLSIDTWFTGLLSSFLGVPDPYFMEVINSPDISKSFILALGAGVFTSIILLPVDLIRTRLIVTSFKKKKNVKTDGKNMVTNTRSLRQLIRCWSWRKNGVSIPLDMWSLTILQSINNSFFNKLFDLVIYNQFHIEKYSQTVMYNTMKFFSKSLELFIKLPLENLLRRCQLNYLLNDQRLSFKVDSTELIVKPKKYNGIWDVIRNNSNTNRGQLWNGWKVGVISLICGYGLQMMNKVDINMEQEKF
On to B1, for which the “stoichiometry N” value is 2.

In general, stoichiometry N refers to the number of molecules, sites or subunits per partner or assembly.

For the origin of these results see paper PMC2654124 (The Journal of Cell Biology, 2009).
